PMC2151085 (PLoS Pathogens, 2007)

B1: ALV-A Env transmembrane subunit (TM), on virus particles (natural protein)
chain: STSHLDDTCSDEVQLWGPTARIFASILAPGVARAQALREIERLACWSVKQANLTTSFLGDLLDDVTSIRHAVLQNRAAIDFLLLAHGHGCEDVAGMCCFNLSDHSESIQKKFQLMKEHVNKIGVDSDPIGSWLRGLFGGIGEWAVHLLKGLLLGLVVILLLVVCLPCLLQIVCGNIRKMINNSISYHTEYKKLQKACGQPESRIV

Key:
[1] = target: ALV-A Env surface subunit (SU), wild type, on virus particles (avian leukosis virus-A (ALV-A)) (UniProt P0DTM4)
[2] = target: the molecule itself; test: SDS-resistant oligomer by SDS-PAGE and immunoblot

Chain of ALV-A Env surface subunit (SU), wild type, on virus particles (avian leukosis virus-A (ALV-A)) (P0DTM4 63-401): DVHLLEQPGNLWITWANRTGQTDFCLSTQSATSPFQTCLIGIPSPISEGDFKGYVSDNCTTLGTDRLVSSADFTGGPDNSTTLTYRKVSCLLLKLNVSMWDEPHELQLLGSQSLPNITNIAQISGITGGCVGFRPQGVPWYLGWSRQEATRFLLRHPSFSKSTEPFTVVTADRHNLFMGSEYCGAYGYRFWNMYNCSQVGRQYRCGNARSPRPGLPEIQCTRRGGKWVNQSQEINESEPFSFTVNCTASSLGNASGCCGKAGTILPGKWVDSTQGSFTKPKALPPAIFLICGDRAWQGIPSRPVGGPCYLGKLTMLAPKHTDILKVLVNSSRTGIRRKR

Molecule | infection of 293-Tva cells by ALV-A particles exposed to PMB (10 mM) in the presence of sTva (10 uM) [1] [%] | stoichiometry N [2]
sTva, a functional isoform of the ALV-A receptor lacking the transmembrane domain | > 99 | –
B1 | – | 3
